Target: fluorescein-labeled BalhA1 leader peptide (Bacillus sp. Al Hakam)
Test: fluorescence polarisation

Substance: MBP-BalhC (natural protein)
- Kd: 11 µM
